# Measured values reported in article PMC3923783, “Competitive and Cooperative Interactions Mediate RNA Transfer from Herpesvirus Saimiri ORF57 to the Mammalian Export Adaptor ALYREF”.
# Key:
# His-ORF57 8-120 WT = His-ORF57 8-120 WT (Herpesvirus saimiri, UniProt P13199 8-120); assay: UV cross-linking; Fluorescence: 20 mM phosphate pH 6.2, 50 mM NaCl, 50 mM L-Arg+L-Glu, 5 mM EDTA, 1 mM TCEP (temperature not stated); NMR: 20 mM phosphate pH 6.2, 50 mM NaCl, 50; settings: protein: recombinant; tags: His6; label: radioactive end label
# ORF57 8-120 [1] = molecular target: T1, ORF57 8-120 (Herpesvirus saimiri, UniProt P13199 8-120); assay: intrinsic Trp fluorescence titration; Fluorescence: 20 mM phosphate pH 6.2, 50 mM NaCl, 50 mM L-Arg+L-Glu, 5 mM EDTA, 1 mM TCEP (temperature not stated); NMR: 20 mM phosphate pH 6.2, 50 mM NaCl, 50; settings: protein: recombinant
# ORF57 8-120 [2] = molecular target: T1, ORF57 8-120; assay: NMR (HSQC titration, saturation transfer); aa64-120 broadened beyond detection at 1:1; Fluorescence: 20 mM phosphate pH 6.2, 50 mM NaCl, 50 mM L-Arg+L-Glu, 5 mM EDTA, 1 mM TCEP (temperature not stated); NMR: 20 mM phosphate pH 6.2, 50 mM NaCl, 50; settings: protein: recombinant
# [3] = molecular target: ORF57 8-120;ALYREF 1-155 (REF2-I) (Herpesvirus saimiri;mouse, UniProt P13199;Q9JJW6 8-120;1-155, |); assay: intrinsic Trp fluorescence titration; RNA into preformed 1:1 ORF57-ALYREF complex, 10 uM; apparent macroscopic Kd; Fluorescence: 20 mM phosphate pH 6.2, 50 mM NaCl, 50 mM L-Arg+L-Glu, 5 mM EDTA, 1 mM TCEP (temperature not stated); NMR: 20 mM phosphate pH 6.2, 50 mM NaCl, 50; settings: protein: recombinant;recombinant; tags: ;; copies: 1;1
# Chain of ORF57 8-120;ALYREF 1-155 (REF2-I) (P13199 8-120, chain 1 of 2): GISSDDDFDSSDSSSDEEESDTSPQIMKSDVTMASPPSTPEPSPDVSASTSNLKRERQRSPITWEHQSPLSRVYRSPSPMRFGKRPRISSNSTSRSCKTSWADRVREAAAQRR
# Chain of ORF57 8-120;ALYREF 1-155 (REF2-I) (Q9JJW6 1-155, chain 2 of 2): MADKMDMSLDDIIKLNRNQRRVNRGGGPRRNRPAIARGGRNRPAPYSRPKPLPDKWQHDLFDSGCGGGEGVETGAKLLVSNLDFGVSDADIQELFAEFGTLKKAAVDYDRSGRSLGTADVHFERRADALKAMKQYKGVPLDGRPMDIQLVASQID
# T1 sequence (P13199 8-120): as the sequence (P13199 8-120, chain 1 of 2) above
# Chain of His-ORF57 8-120 WT (P13199 8-120): as the sequence (P13199 8-120, chain 1 of 2) above
binder,measurement,setting,value
GAAGAGG (ssRNA) [7merS end-labeled],binding result,His-ORF57 8-120 WT,binds
CAGUCGC (ssRNA) [7merN],Kd,ORF57 8-120 [1],38.8 ± 0.6 µM
GAAGAGG (ssRNA) [7merS],binding result,ORF57 8-120 [2],binds
CAGUCGCGAAGAGG (ssRNA) [14merS],Kd,[3],1.55 ± 0.24 µM
same,Kd,ORF57 8-120 [1],7.57 ± 0.06 µM
